According to article PMC9091730 (Journal of Advanced Research, 2021):
Where two headings read alike, the source gives them in different places.

Experiments:
[1] = molecular target: L-type voltage-gated Ca2+ channel (TcL-VGCC) (Tetranychus cinnabarinus, UniProt A0A3Q9D0J7); test: voltage-clamp whole-cell current recording in Xenopus oocytes; type: cell-based
[2] = molecular target: GST-fusion peptide of the wild-type IQ motif of T. cinnabarinus L-VGCC (Tetranychus cinnabarinus); test: pull-down
[3] = molecular target: GST-fusion peptide of the N-terminal (NT) motif of T. cinnabarinus L-type voltage-gated Ca2+ channel (Tetranychus cinnabarinus); test: pull-down
[4] = molecular target: GST-fusion peptide of the PreIQ motif of T. cinnabarinus L-VGCC (Tetranychus cinnabarinus); test: pull-down
[5] = molecular target: GST-fusion peptide of the near-end C-terminal motif (CT1) of T. cinnabarinus L-VGCC (Tetranychus cinnabarinus); test: pull-down
[6] = molecular target: GST-fusion peptide of the wild-type IQ motif of T. cinnabarinus L-VGCC (Tetranychus cinnabarinus); test: pull-down; remark: listed apart in the source
[7] = molecular target: GST-fusion peptide CT1B (PreIQ and IQ) of T. cinnabarinus L-VGCC (Tetranychus cinnabarinus); test: pull-down

Compound | EC50 [1] [nM] | Kd [2] [nM] | Kd [3] [nM] | Kd [4] [nM] | Kd [5] [nM] | Kd, two-site model, first printed value [5] [nM] | Kd, two-site model, second printed value [5] [nM] | stoichiometry N [5] | Kd [6] [nM] | percent increase of CaM1 binding in the presence of scoparone (5.54 μM) [6] [%] | stoichiometry N [7]
COc1cc2ccc(=O)oc2cc1OC [compound 1, scoparone] | 5540 |  |  |  |  |  |  |  |  |  | 
Tetranychus cinnabarinus calmodulin 1 (TcCaM1), recombinant, purified (natural protein) |  | 230 | 112 | 85 | 931 | 2250 | 24 | > 1 | 430 | 47.1 | > 1
